For experiment [1], the target named is human CD3 on T (Jurkat) cells (human) (UniProt P07766). Nature of the experiment: flow cytometry; PerCP-anti-hCD3e (OKT3) staining of Jurkat cells; media alone, no competitor. (In general: A flow cytometer gives signals particle by particle.)
For experiment [2] the target is unchanged. Nature of the experiment: flow cytometry; PerCP-anti-hCD3e (OKT3) staining of Jurkat cells; supernatant of untransfected 293T cells, no competitor.
Experiment [3] has the same target. The experiment can be described thus: flow cytometry; PerCP-anti-hCD3e (OKT3) staining of Jurkat cells; supernatant of GFP-transfected 293T cells, no competitor.
The target is the same in experiment [4]. The experiment can be described thus: flow cytometry; PerCP-anti-hCD3e (OKT3) staining of Jurkat cells; media alone, no competitor (same control values as in paragraph 403).
For experiment [5] the target is unchanged. Nature of the experiment: flow cytometry; PerCP-anti-hCD3e (OKT3) staining of Jurkat cells; supernatant of untransfected 293T cells (same control values as in paragraph 403).
The target is the same in experiment [6]. The experiment can be described thus: flow cytometry; PerCP-anti-hCD3e (OKT3) staining of Jurkat cells; supernatant of GFP-transfected 293T cells (same control values as in paragraph 403).
For experiment [7] the target is unchanged. Nature of the experiment: flow cytometry; PerCP-anti-hCD3e (OKT3) staining of Jurkat cells; supernatant of vector #1104, which lacks a secretion peptide (dimert not secreted).
For experiment [8] the target is unchanged. The experiment can be described thus: flow cytometry; PerCP-anti-hCD3e (OKT3) staining of Jurkat cells; supernatant of vector #1323, which lacks a secretion peptide (dimert not secreted).

These results are taken from patent US20260137779A1.

PerCP-anti-hCD3e antibody (#OKT3): the % CD3 positive (Q2+Q3) in experiment [1] is 77.6%; in experiment [2], 79.2%; in experiment [3] it was 78.7%; in experiment [4], 77.6%; in experiment [5] it was 79.2%; in experiment [6] it was 78.7%. In addition, the % CD3 positive (Q2+Q3) was determined as 77.7% in experiment [7] and 79.4% in experiment [8].
